From PMC8915965
Where two headings read alike, the source gives them in different places.

Columns and labels:
[1] = expression in HeLaΔCD164 (SI Fig. S4); settings: glycan lost; control: WT CD164

Protein | other: cell-cell membrane fusion (glycan lost) | expression_or_secretion [1] | other: support of virus infection (glycan lost) | other: support of virus infection (glycan gained)
CD164: N104Q hCD164PM (protein) parent chain: MSRLSRSLLWAATCLGVLCVLSADKNTTQHPNVTTLAPISNVTSAPVTSLPLVTTPAPETCEGRNSCVSCFNVSVVNTTCFWIECKDESYCSHNSTVSDCQVGNTTDFCSVSTATPVPTANSTAKPTVQPSPSTTSKTVTTSGTTNNTVTPTSQPVRKSTFDAASFIGGIVLVLGVQAVIFFLYKFCKSKERNYHTL | abolishes | – | – | –
CD164: N72Q (protein) parent chain: MSRLSRSLLWAATCLGVLCVLSADKNTTQHPNVTTLAPISNVTSAPVTSLPLVTTPAPETCEGRNSCVSCFNVSVVNTTCFWIECKDESYCSHNSTVSDCQVGNTTDFCSVSTATPVPTANSTAKPTVQPSPSTTSKTVTTSGTTNNTVTPTSQPVRKSTFDAASFIGGIVLVLGVQAVIFFLYKFCKSKERNYHTL | – | no change | no change | –
CD164: N104Q (protein) parent chain: MSRLSRSLLWAATCLGVLCVLSADKNTTQHPNVTTLAPISNVTSAPVTSLPLVTTPAPETCEGRNSCVSCFNVSVVNTTCFWIECKDESYCSHNSTVSDCQVGNTTDFCSVSTATPVPTANSTAKPTVQPSPSTTSKTVTTSGTTNNTVTPTSQPVRKSTFDAASFIGGIVLVLGVQAVIFFLYKFCKSKERNYHTL | – | no change | decreases | –
CD164: N94Q (protein) parent chain: MSRLSRSLLWAATCLGVLCVLSADKNTTQHPNVTTLAPISNVTSAPVTSLPLVTTPAPETCEGRNSCVSCFNVSVVNTTCFWIECKDESYCSHNSTVSDCQVGNTTDFCSVSTATPVPTANSTAKPTVQPSPSTTSKTVTTSGTTNNTVTPTSQPVRKSTFDAASFIGGIVLVLGVQAVIFFLYKFCKSKERNYHTL | – | no change | no change | –
CD164: N77Q (protein) parent chain: MSRLSRSLLWAATCLGVLCVLSADKNTTQHPNVTTLAPISNVTSAPVTSLPLVTTPAPETCEGRNSCVSCFNVSVVNTTCFWIECKDESYCSHNSTVSDCQVGNTTDFCSVSTATPVPTANSTAKPTVQPSPSTTSKTVTTSGTTNNTVTPTSQPVRKSTFDAASFIGGIVLVLGVQAVIFFLYKFCKSKERNYHTL | – | no change | no change | –
rat CD164 (rCD164): T102N rCD164 (protein) parent chain: MSGASRGLFWAATCLAALCLSAAQSNSSASPNVTDPPTTTSKVVPTTLTTTKPPETCESFNSCVSCVNATLTNNITCVWLDCHEANKTYCSSELVSNCTQKTSTDSCSVIPTTPVPTNSTAKPTTRPSSPTPTPSVVTSAGATNTTVTPTSQPERKSTFDAASFIGGIVLVLGVQAVIFFLYKFCKSKERNYHTL | – | – | – | increases
